# In article PMC10397247:
# Where two headings read alike, the source gives them in different places.
# T1: 4H568-bN
# T1 chain: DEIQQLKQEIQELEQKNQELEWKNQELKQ
# T2: 4H908-bN
# T2 chain: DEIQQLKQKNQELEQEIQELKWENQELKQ
# T3: 4H797-bN
# T3 chain: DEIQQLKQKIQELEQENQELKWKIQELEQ
# T4: 4H2729-bN
# T4 chain: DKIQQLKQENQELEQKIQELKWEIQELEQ
# T5: 4H918-bN
# T5 chain: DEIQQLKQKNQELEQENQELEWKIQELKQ
# T6: 4H607-bN
# T6 chain: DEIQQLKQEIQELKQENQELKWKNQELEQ
# T7: 4H2667-bN
# T7 chain: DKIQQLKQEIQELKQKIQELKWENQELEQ
# T8: 4H754-bN
# T8 chain: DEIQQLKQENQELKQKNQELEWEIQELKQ
# T9: 4H3427-bN
# T9 chain: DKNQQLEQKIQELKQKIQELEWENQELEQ
# T10: 4H967-bN
# T10 chain: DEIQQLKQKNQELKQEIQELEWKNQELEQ
# T11: 4H3354-bN
# T11 chain: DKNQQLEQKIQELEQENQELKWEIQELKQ
# T12: 4H331-bN
# T12 chain: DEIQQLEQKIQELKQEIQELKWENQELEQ
# T13: 4H3185-bN
# T13 chain: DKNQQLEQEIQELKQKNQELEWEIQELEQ
# T14: 4H1828-bN
# T14 chain: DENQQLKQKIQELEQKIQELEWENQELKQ
# T15: 4H3855-bN
# T15 chain: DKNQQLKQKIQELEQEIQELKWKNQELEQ
# T16: 4H953-bN
# T16 chain: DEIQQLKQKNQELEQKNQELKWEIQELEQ
# T17: 4H454-bN
# T17 chain: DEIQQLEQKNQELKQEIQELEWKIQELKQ
# T18: 4H2697-bN
# T18 chain: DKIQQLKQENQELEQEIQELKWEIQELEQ
# T19: 4H687-bN
# T19 chain: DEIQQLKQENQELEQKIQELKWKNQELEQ
# T20: 4H2576-bN
# T20 chain: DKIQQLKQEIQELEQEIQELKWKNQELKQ
# T21: 4H2618-bN
# T21 chain: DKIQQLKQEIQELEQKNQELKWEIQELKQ
# T22: 4H883-bN
# T22 chain: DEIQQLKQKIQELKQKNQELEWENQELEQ
# T23: 4H2442-bN
# T23 chain: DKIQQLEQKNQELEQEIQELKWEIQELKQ
# T24: 4H4001-bN
# T24 chain: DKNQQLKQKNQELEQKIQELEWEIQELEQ
# T25: 4H3112-bN
# T25 chain: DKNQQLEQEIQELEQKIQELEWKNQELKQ
# T26: 4H338-bN
# T26 chain: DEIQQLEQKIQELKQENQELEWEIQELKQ
# T27: 4H72-bN
# T27 chain: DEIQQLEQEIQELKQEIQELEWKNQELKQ
# T28: 4H3782-bN
# T28 chain: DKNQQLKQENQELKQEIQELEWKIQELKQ
# T29: 4H717-bN
# T29 chain: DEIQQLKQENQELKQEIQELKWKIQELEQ
# T30: 4H1845-bN
# T30 chain: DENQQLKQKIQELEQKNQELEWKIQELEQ
# T31: 4H2438-bN
# T31 chain: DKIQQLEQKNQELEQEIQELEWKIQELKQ
# T32: 4H40-bN
# T32 chain: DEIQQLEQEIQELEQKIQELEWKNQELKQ
# T33: 4H3277-bN
# T33 chain: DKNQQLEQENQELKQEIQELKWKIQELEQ
# T34: 4H2839-bN
# T34 chain: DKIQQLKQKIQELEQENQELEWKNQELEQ
# T35: 4H2588-bN
# T35 chain: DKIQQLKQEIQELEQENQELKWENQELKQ
# T36: 4H2717-bN
# T36 chain: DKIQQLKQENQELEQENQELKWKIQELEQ
# T37: 4H2503-bN
# T37 chain: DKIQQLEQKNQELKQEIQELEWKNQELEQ
# T38: 4H492-bN
# T38 chain: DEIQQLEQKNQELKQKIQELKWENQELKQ
# T39: 4H319-bN
# T39 chain: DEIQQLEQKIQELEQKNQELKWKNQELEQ
# T40: 4H477-bN
# T40 chain: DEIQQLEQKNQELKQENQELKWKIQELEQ
# T41: 4H2134-bN
# T41 chain: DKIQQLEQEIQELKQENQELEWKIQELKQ
# T42: 4H741-bN
# T42 chain: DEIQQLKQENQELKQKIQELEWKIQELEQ
# T43: 4H2692-bN
# T43 chain: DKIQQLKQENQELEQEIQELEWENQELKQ
# T44: 4H2473-bN
# T44 chain: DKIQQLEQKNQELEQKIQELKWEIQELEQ
# T45: 4H2915-bN
# T45 chain: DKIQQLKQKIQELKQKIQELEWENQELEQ
# T46: 4H348-bN
# T46 chain: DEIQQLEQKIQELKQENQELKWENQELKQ
# T47: 4H3057-bN
# T47 chain: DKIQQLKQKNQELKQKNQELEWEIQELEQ
# T48: 4H2223-bN
# T48 chain: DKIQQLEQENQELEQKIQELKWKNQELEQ
# T49: 4H2143-bN
# T49 chain: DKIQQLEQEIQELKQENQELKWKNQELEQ
# T50: O13-bS
# T50 chain: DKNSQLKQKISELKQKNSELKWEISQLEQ
# T51: O2-bS
# T51 chain: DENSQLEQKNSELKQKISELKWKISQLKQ
# T52: O8-bS
# T52 chain: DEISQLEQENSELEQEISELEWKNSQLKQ
# T53: O4-bS
# T53 chain: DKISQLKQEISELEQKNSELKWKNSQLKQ
# T54: O11-bS
# T54 chain: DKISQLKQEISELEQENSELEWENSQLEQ
# T55: O15-bS
# T55 chain: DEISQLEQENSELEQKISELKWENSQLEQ
# T56: O6-bS
# T56 chain: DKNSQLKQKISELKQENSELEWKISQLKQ
# T57: O16-bS
# T57 chain: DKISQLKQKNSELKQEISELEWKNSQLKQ
# T58: O9-bS
# T58 chain: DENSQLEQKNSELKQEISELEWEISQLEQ
# T59: O7-bS
# T59 chain: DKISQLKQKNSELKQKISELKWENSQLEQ
# T60: O12-bS
# T60 chain: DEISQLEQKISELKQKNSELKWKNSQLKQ
# T61: O5-bS
# T61 chain: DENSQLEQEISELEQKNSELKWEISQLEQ
# T62: O3-bS
# T62 chain: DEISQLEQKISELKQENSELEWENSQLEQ
# T63: O14-bS
# T63 chain: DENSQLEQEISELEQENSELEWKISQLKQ
# T64: O10-bS
# T64 chain: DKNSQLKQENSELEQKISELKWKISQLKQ
# What was measured:
# Assay in all cases: two-hybrid library CCNG1;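 note: natural log of median RNA to DNA barcode read ratio; higher means stronger binding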
# [1] = biological target: T1, 4H568-bN
# [2] = biological target: T2, 4H908-bN
# [3] = biological target: T3, 4H797-bN
# [4] = biological target: T4, 4H2729-bN
# [5] = biological target: T5, 4H918-bN
# [6] = biological target: T6, 4H607-bN
# [7] = biological target: T7, 4H2667-bN
# [8] = biological target: T8, 4H754-bN
# [9] = biological target: T9, 4H3427-bN
# [10] = biological target: T10, 4H967-bN
# [11] = biological target: T11, 4H3354-bN
# [12] = biological target: T12, 4H331-bN
# [13] = biological target: T13, 4H3185-bN
# [14] = biological target: T14, 4H1828-bN
# [15] = biological target: T15, 4H3855-bN
# [16] = biological target: T16, 4H953-bN
# [17] = biological target: T17, 4H454-bN
# [18] = biological target: T18, 4H2697-bN
# [19] = biological target: T19, 4H687-bN
# [20] = biological target: T20, 4H2576-bN
# [21] = biological target: T21, 4H2618-bN
# [22] = biological target: T22, 4H883-bN
# [23] = biological target: T23, 4H2442-bN
# [24] = biological target: T24, 4H4001-bN
# [25] = biological target: T25, 4H3112-bN
# [26] = biological target: T26, 4H338-bN
# [27] = biological target: T27, 4H72-bN
# [28] = biological target: T28, 4H3782-bN
# [29] = biological target: T29, 4H717-bN
# [30] = biological target: T30, 4H1845-bN
# [31] = biological target: T31, 4H2438-bN
# [32] = biological target: T32, 4H40-bN
# [33] = biological target: T33, 4H3277-bN
# [34] = biological target: T34, 4H2839-bN
# [35] = biological target: T35, 4H2588-bN
# [36] = biological target: T36, 4H2717-bN
# [37] = biological target: T37, 4H2503-bN
# [38] = biological target: T38, 4H492-bN
# [39] = biological target: T39, 4H319-bN
# [40] = biological target: T40, 4H477-bN
# [41] = biological target: T41, 4H2134-bN
# [42] = biological target: T42, 4H741-bN
# [43] = biological target: T43, 4H2692-bN
# [44] = biological target: T44, 4H2473-bN
# [45] = biological target: T45, 4H2915-bN
# [46] = biological target: T46, 4H348-bN
# [47] = biological target: T47, 4H3057-bN
# [48] = biological target: T48, 4H2223-bN
# [49] = biological target: T49, 4H2143-bN; settings: mean of both orientations
# [50] = biological target: T50, O13-bS
# [51] = biological target: T51, O2-bS
# [52] = biological target: T52, O8-bS
# [53] = biological target: T53, O4-bS
# [54] = biological target: T54, O11-bS
# [55] = biological target: T55, O15-bS
# [56] = biological target: T56, O6-bS
# [57] = biological target: T57, O16-bS
# [58] = biological target: T58, O9-bS
# [59] = biological target: T59, O7-bS
# [60] = biological target: T60, O12-bS
# [61] = biological target: T61, O5-bS
# [62] = biological target: T62, O3-bS
# [63] = biological target: T63, O14-bS
# [64] = biological target: T64, O10-bS; settings: mean of both orientations
binder,measurement,setting,value
DENQQLKQKIQELEQKIQELEWENQELKQ [4H1828-bN],interaction score,[1],-0.67
same,interaction score,[2],-1.28
same,interaction score,[3],-1.07
same,interaction score,[4],-0.165
same,interaction score,[5],-1.16
same,interaction score,[6],-0.0859
same,interaction score,[7],1.18
same,interaction score,[8],-2.15
same,interaction score,[9],-0.728
same,interaction score,[10],-0.704
same,interaction score,[11],-1.74
same,interaction score,[12],0.0332
same,interaction score,[13],-0.135
same,interaction score,[14],1.19
same,interaction score,[15],0.0633
same,interaction score,[16],-0.334
same,interaction score,[17],-1.22
same,interaction score,[18],-0.202
same,interaction score,[19],-0.773
same,interaction score,[20],1.52
same,interaction score,[21],0.00935
same,interaction score,[22],-0.284
same,interaction score,[23],-0.746
same,interaction score,[24],-0.709
same,interaction score,[25],0.443
same,interaction score,[26],-0.738
same,interaction score,[27],0.18
same,interaction score,[28],0.26
same,interaction score,[29],-0.318
same,interaction score,[30],-0.541
DKIQQLEQEIQELKQENQELEWKIQELKQ [4H2134-bN],interaction score,[31],0.477
same,interaction score,[32],-0.166
same,interaction score,[33],-0.911
same,interaction score,[34],0.142
same,interaction score,[35],-0.119
same,interaction score,[36],-0.26
same,interaction score,[37],-0.659
same,interaction score,[38],-1.68
same,interaction score,[39],0.833
same,interaction score,[40],0.581
same,interaction score,[41],1.45
same,interaction score,[42],0.14
same,interaction score,[43],0.473
same,interaction score,[44],0.214
same,interaction score,[45],-1.35
same,interaction score,[46],-0.138
same,interaction score,[47],0.93
same,interaction score,[48],-0.162
same,interaction score,[49],0.912
DKISQLKQEISELEQENSELEWENSQLEQ [O11-bS],interaction score,[50],-0.61
same,interaction score,[51],-0.471
same,interaction score,[52],-3.31
same,interaction score,[53],0.272
same,interaction score,[54],-1.25
same,interaction score,[55],-0.753
same,interaction score,[56],-0.902
same,interaction score,[57],-0.701
same,interaction score,[58],-2.56
same,interaction score,[59],-1.17
same,interaction score,[60],1.88
same,interaction score,[61],-2.35
same,interaction score,[62],-1.25
same,interaction score,[63],-2.92
DKNSQLKQENSELEQKISELKWKISQLKQ [O10-bS],interaction score,[50],-0.797
same,interaction score,[51],-1.55
same,interaction score,[64],-1.52
same,interaction score,[52],-1.24
same,interaction score,[53],-0.565
same,interaction score,[54],-2
same,interaction score,[55],0.0876
same,interaction score,[56],-0.631
same,interaction score,[57],-0.405
same,interaction score,[58]; mean of both orientations,0.492
same,interaction score,[59],-0.783
same,interaction score,[60],-2.63
same,interaction score,[61],-1.67
same,interaction score,[62],-0.954
